Reference: patent publication US12637517B2, “Enzyme and pathway modulation with sulfhydryl compounds and their derivatives” (HOFFMANN-LA ROCHE INC., priority 2020, dated 2026)

Legend:
FcRn = FcRn (Homo sapiens, UniProt P55899); assay: Relative binding to FcRn by surface plasmon resonance (SPR); settings: for Relative level of FcRn binding (at Day-14) (%): EXAMPLE-8, small-scale purified mAb from CHO L971 process, SPR
Excerpt: The neonatal Fe receptor (FcRn) influences the pharmacokinetic (PK) profile of IgG-type antibodies by its ability to salvage antibodies from the early endosome and recycle them back into circulation. The interaction with FcRn is considered to be the most critical factor in determining the PK of IgG-type therapeutic antibodies and is considered a surrogate for clearance (see review Nimmerjahn and Ravetch 2008).
(§1) Here, relative binding of the small-scale purified aSyn-L971-mAb samples to FcRn and FcγIIa (His131) by surface plasmon resonance (SPR) was determined. The relative binding of the small-scale purified aSyn-L971-mAb samples to the target was determined by ELISA.

Fcγ-RIIa (H131) = biological target: T1, Fcγ-RIIa (H131) (Homo sapiens, UniProt P12318); assay: Relative binding to FcγIIa (His131) by surface plasmon resonance (SPR); settings: for Relative level of FcyRIIa binding (at Day-14) (%): EXAMPLE-8, small-scale purified mAb from CHO L971 process, SPR, H131 allotype
T1 sequence (P12318 34-217 limits assumed): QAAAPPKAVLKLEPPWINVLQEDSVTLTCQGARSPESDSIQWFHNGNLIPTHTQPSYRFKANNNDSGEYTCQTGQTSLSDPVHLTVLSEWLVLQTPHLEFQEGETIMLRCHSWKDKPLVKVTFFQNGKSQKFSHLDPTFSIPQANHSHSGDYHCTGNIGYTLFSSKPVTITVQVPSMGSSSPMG
Excerpt: Fcγ-receptors are mediators of effector functions on immune effector cells. Among the different human Fcγ-receptors, Fcγ-RIIa is considered to be a dominant factor in mediating antibody dependent phagocytosis (ADCP). Of the two most prevalent allotypes of Fcγ-RIIa, the form with a histidine at amino acid position 131 (H131) is often described as the higher affinity allotype. (Nimmerjahn and Ravetch 2008, Yamada et al. 2013)
as §1

human α-synuclein = human α-synuclein (Homo sapiens, UniProt P37840); assay: Relative binding to the target by ELISA; settings: for Relative level of Target binding (at Day-14) (%): EXAMPLE-8, small-scale purified mAb from CHO L971 process, ELISA
Procedure: as §1

| Relative level of FcRn binding (at Day-14) (%) (FcRn) | Relative level of FcyRIIa binding (at Day-14) (%) (Fcγ-RIIa (H131)) | Relative level of Target binding (at Day-14) (%) (human α-synuclein) | FcRn relative binding level, higher than from the process with 3 mM L-cystine (FcRn; FIG. 11C, antibody from process with 6 mM L-cysteine vs 3 mM L-cystine) | FcRn relative binding level (FcRn; FIG. 11C, antibody from the process with 3 mM L-cystine in production medium) | FcRn relative binding level (FcRn; FIG. 11C, antibody from the process with 6 mM L-cysteine in production medium) | Fcγ-RIIa (H131) relative binding level, higher than from the process with 3 mM L-cystine (Fcγ-RIIa (H131); FIG. 11D, antibody from process with 6 mM L-cysteine vs 3 mM L-cystine) | Fcγ-RIIa (H131) relative binding level (Fcγ-RIIa (H131); FIG. 11D, antibody from the process with 3 mM L-cystine in production medium) | Fcγ-RIIa (H131) relative binding level (Fcγ-RIIa (H131); FIG. 11D, antibody from the process with 6 mM L-cysteine in production medium) | target relative binding level, higher than from the process with 3 mM L-cystine (human α-synuclein; FIG. 11E, antibody from process with 6 mM L-cysteine vs 3 mM L-cystine) | target relative binding level (human α-synuclein; FIG. 11E, antibody from the process with 3 mM L-cystine in production medium) | target relative binding level (human α-synuclein; FIG. 11E, antibody from the process with 6 mM L-cysteine in production medium) | Substance |
| --- | --- | --- | --- | --- | --- | --- | --- | --- | --- | --- | --- | --- |
| 85.0% | 77.0% | 83.0% | – | – | – | – | – | – | – | – | – | anti-α-synuclein L971 (3 mM Cystine): anti-human α-synuclein monoclonal antibody (Prasinezumab) from CHO L971 process with 3 mM L-cystine in production medium |
| 118.0% | 113.0% | 118.0% | – | – | – | – | – | – | – | – | – | anti-α-synuclein L971 (6 mM Cysteine): anti-human α-synuclein monoclonal antibody (Prasinezumab) from CHO L971 process with 6 mM L-cysteine in production medium |
| – | – | – | about 33% | about 85% | about 118% | about 36% | about 77% | about 113% | about 35% | about 83% | about 118% | anti-α-synuclein antibody L971: anti-human α-synuclein monoclonal antibody expressed by CHO L971 cell-line; CHO L971 cells produce Prasinezumab |
